The record followed here is patent US7063845 (KIRIN BEER, dated 2006).

This assay addresses T1, human CD40 on the cell surface (EL-4 cells transfected with full length human CD40 cDNA); Ramos B cells; human … (human, UniProt P25942 21-277).
T1 construct: whole, on cells; Ramos and peripheral B cells carry their own CD40; also called cell surface human CD40
The assay is described as follows: FACS on EL-4 cells expressing human CD40.

T1 sequence (P25942 21-277): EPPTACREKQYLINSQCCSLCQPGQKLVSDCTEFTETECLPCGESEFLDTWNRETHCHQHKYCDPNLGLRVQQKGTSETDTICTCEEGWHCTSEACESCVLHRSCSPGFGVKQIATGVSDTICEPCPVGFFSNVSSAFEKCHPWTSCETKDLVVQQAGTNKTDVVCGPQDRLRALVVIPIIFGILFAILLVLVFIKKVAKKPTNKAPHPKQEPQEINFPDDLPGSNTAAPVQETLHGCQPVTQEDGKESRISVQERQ

B1: recombinant human anti-CD40 antibody F5-77 (antibody, V domains shown)
VH: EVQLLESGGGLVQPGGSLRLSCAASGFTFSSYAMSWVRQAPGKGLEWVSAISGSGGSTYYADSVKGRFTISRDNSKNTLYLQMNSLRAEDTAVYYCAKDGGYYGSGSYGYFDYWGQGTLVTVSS
VL: DIQMTQSPSSVSGSVGDRVTITCRASQGISSWLAWYQQKPGKAPKLLIYAGSSLQSGVPSRFSGSGFGTDFTLTISSLQPEDFATYYCQQASSFPRTFGQGTKVEIK
notes: also called F5-77 (K1H1); printed F5-17 in claim 19
With B1, the binding result was “binds”.
